# Numbered stars: 1 amine (or outer) side, 2 acyl side, 3 side chain; on linkers, the order of the positions; unused ones are H or OH. Square brackets hold non-standard residues; d marks the D form. Side chains are listed from the residue outwards. Ends that are not written are not given here. * marks the point of attachment. 40K‑TE PEG = 40 kDa PEG covalently bound via thioether, formed by reaction of the free thiol of the peptide (Cys side chain) with an iodoacetic-functionalized PEG; γGlu = O=C(O)[C@H](CCC(=O)[*:2])N[*:1]; Palmitoyl = CCCCCCCCCCCCCCCC(=O)*; Aib = CC(C)(N)C(=O)O
# T1: GIP receptor (UniProt P48546 22-466)
# T1 sequence (looked up): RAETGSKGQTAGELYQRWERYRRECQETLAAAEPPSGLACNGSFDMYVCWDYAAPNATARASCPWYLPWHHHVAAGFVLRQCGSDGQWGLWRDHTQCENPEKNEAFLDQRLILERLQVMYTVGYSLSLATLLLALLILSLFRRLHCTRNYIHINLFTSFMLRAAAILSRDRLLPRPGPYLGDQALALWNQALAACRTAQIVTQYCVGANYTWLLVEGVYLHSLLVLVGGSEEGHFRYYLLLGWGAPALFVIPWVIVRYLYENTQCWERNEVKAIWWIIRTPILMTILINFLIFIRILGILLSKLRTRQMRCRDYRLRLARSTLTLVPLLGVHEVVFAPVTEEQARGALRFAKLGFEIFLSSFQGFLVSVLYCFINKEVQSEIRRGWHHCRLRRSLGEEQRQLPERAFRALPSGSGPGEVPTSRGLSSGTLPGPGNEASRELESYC
# B1: peptide of SEQ ID NO: 28 (peptide)
# peptide: H[dS]QGTFTSDK([γGlu-Palmitoyl])SKYLDERAAQDFVQWLLDGRK-NH2
# modifications: N-terminus assumed
# SMILES: CCCCCCCCCCCCCCCC(=O)N[C@@H](CCC(=O)NCCCC[C@H](NC(=O)[C@H](CC(=O)O)NC(=O)[C@H](CO)NC(=O)[C@@H](NC(=O)[C@H](Cc1ccccc1)NC(=O)[C@@H](NC(=O)CNC(=O)[C@H](CCC(N)=O)NC(=O)[C@@H](CO)NC(=O)[C@@H](N)Cc1c[nH]cn1)[C@@H](C)O)[C@@H](C)O)C(=O)N[C@@H](CO)C(=O)N[C@@H](CCCCN)C(=O)N[C@@H](Cc1ccc(O)cc1)C(=O)N[C@@H](CC(C)C)C(=O)N[C@@H](CC(=O)O)C(=O)N[C@@H](CCC(=O)O)C(=O)N[C@@H](CCCNC(=N)N)C(=O)N[C@@H](C)C(=O)N[C@@H](C)C(=O)N[C@@H](CCC(N)=O)C(=O)N[C@@H](CC(=O)O)C(=O)N[C@@H](Cc1ccccc1)C(=O)N[C@H](C(=O)N[C@@H](CCC(N)=O)C(=O)N[C@@H](Cc1c[nH]c2ccccc12)C(=O)N[C@@H](CC(C)C)C(=O)N[C@@H](CC(C)C)C(=O)N[C@@H](CC(=O)O)C(=O)NCC(=O)N[C@@H](CCCNC(=N)N)C(=O)N[C@@H](CCCCN)C(N)=O)C(C)C)C(=O)O
# B2: peptide of SEQ ID NO: 29 (peptide)
# peptide: H[Aib]QGTFTSDK([γGlu-γGlu-Palmitoyl])SKYLD[Aib]RAAQDFVQWLL[Aib]GRG-NH2
# modifications: N-terminus assumed
# SMILES: CCCCCCCCCCCCCCCC(=O)N[C@@H](CCC(=O)N[C@@H](CCC(=O)NCCCC[C@H](NC(=O)[C@H](CC(=O)O)NC(=O)[C@H](CO)NC(=O)[C@@H](NC(=O)[C@H](Cc1ccccc1)NC(=O)[C@@H](NC(=O)CNC(=O)[C@H](CCC(N)=O)NC(=O)C(C)(C)NC(=O)[C@@H](N)Cc1c[nH]cn1)[C@@H](C)O)[C@@H](C)O)C(=O)N[C@@H](CO)C(=O)N[C@@H](CCCCN)C(=O)N[C@@H](Cc1ccc(O)cc1)C(=O)N[C@@H](CC(C)C)C(=O)N[C@@H](CC(=O)O)C(=O)NC(C)(C)C(=O)N[C@@H](CCCNC(=N)N)C(=O)N[C@@H](C)C(=O)N[C@@H](C)C(=O)N[C@@H](CCC(N)=O)C(=O)N[C@@H](CC(=O)O)C(=O)N[C@@H](Cc1ccccc1)C(=O)N[C@H](C(=O)N[C@@H](CCC(N)=O)C(=O)N[C@@H](Cc1c[nH]c2ccccc12)C(=O)N[C@@H](CC(C)C)C(=O)N[C@@H](CC(C)C)C(=O)NC(C)(C)C(=O)NCC(=O)N[C@@H](CCCNC(=N)N)C(=O)NCC(N)=O)C(C)C)C(=O)O)C(=O)O
# B3: peptide of SEQ ID NO: 30 (peptide)
# peptide: H[Aib]QGTFTSDK([γGlu-Palmitoyl])SKYLD[Aib]RAAQDFVQWLLDGRG-NH2
# modifications: N-terminus assumed
# SMILES: CCCCCCCCCCCCCCCC(=O)N[C@@H](CCC(=O)NCCCC[C@H](NC(=O)[C@H](CC(=O)O)NC(=O)[C@H](CO)NC(=O)[C@@H](NC(=O)[C@H](Cc1ccccc1)NC(=O)[C@@H](NC(=O)CNC(=O)[C@H](CCC(N)=O)NC(=O)C(C)(C)NC(=O)[C@@H](N)Cc1c[nH]cn1)[C@@H](C)O)[C@@H](C)O)C(=O)N[C@@H](CO)C(=O)N[C@@H](CCCCN)C(=O)N[C@@H](Cc1ccc(O)cc1)C(=O)N[C@@H](CC(C)C)C(=O)N[C@@H](CC(=O)O)C(=O)NC(C)(C)C(=O)N[C@@H](CCCNC(=N)N)C(=O)N[C@@H](C)C(=O)N[C@@H](C)C(=O)N[C@@H](CCC(N)=O)C(=O)N[C@@H](CC(=O)O)C(=O)N[C@@H](Cc1ccccc1)C(=O)N[C@H](C(=O)N[C@@H](CCC(N)=O)C(=O)N[C@@H](Cc1c[nH]c2ccccc12)C(=O)N[C@@H](CC(C)C)C(=O)N[C@@H](CC(C)C)C(=O)N[C@@H](CC(=O)O)C(=O)NCC(=O)N[C@@H](CCCNC(=N)N)C(=O)NCC(N)=O)C(C)C)C(=O)O
# B4: peptide of SEQ ID NO: 32 (peptide)
# peptide: H[Aib]QGTFTSDK([γGlu-γGlu-Palmitoyl])SKYLD[Aib]RAAQDFVQWLMDTK[dA]-OH
# modifications: N-terminus assumed
# SMILES: CCCCCCCCCCCCCCCC(=O)N[C@@H](CCC(=O)N[C@@H](CCC(=O)NCCCC[C@H](NC(=O)[C@H](CC(=O)O)NC(=O)[C@H](CO)NC(=O)[C@@H](NC(=O)[C@H](Cc1ccccc1)NC(=O)[C@@H](NC(=O)CNC(=O)[C@H](CCC(N)=O)NC(=O)C(C)(C)NC(=O)[C@@H](N)Cc1c[nH]cn1)[C@@H](C)O)[C@@H](C)O)C(=O)N[C@@H](CO)C(=O)N[C@@H](CCCCN)C(=O)N[C@@H](Cc1ccc(O)cc1)C(=O)N[C@@H](CC(C)C)C(=O)N[C@@H](CC(=O)O)C(=O)NC(C)(C)C(=O)N[C@@H](CCCNC(=N)N)C(=O)N[C@@H](C)C(=O)N[C@@H](C)C(=O)N[C@@H](CCC(N)=O)C(=O)N[C@@H](CC(=O)O)C(=O)N[C@@H](Cc1ccccc1)C(=O)N[C@H](C(=O)N[C@@H](CCC(N)=O)C(=O)N[C@@H](Cc1c[nH]c2ccccc12)C(=O)N[C@@H](CC(C)C)C(=O)N[C@@H](CCSC)C(=O)N[C@@H](CC(=O)O)C(=O)N[C@H](C(=O)N[C@@H](CCCCN)C(=O)N[C@H](C)C(=O)O)[C@@H](C)O)C(C)C)C(=O)O)C(=O)O
# B5: peptide of SEQ ID NO: 14 (peptide)
# peptide: H[Aib]QGTFTSDYSKYLDERRA[Aib]EFVC(40K‑TE PEG)WLLDT-NH2
# B6: peptide of SEQ ID NO: 27 (peptide)
# peptide: H[dS]QGTFTSDK([γGlu-Palmitoyl])SKYLDERAAQDFVQWLLKGRG-NH2
# modifications: N-terminus assumed
# SMILES: CCCCCCCCCCCCCCCC(=O)N[C@@H](CCC(=O)NCCCC[C@H](NC(=O)[C@H](CC(=O)O)NC(=O)[C@H](CO)NC(=O)[C@@H](NC(=O)[C@H](Cc1ccccc1)NC(=O)[C@@H](NC(=O)CNC(=O)[C@H](CCC(N)=O)NC(=O)[C@@H](CO)NC(=O)[C@@H](N)Cc1c[nH]cn1)[C@@H](C)O)[C@@H](C)O)C(=O)N[C@@H](CO)C(=O)N[C@@H](CCCCN)C(=O)N[C@@H](Cc1ccc(O)cc1)C(=O)N[C@@H](CC(C)C)C(=O)N[C@@H](CC(=O)O)C(=O)N[C@@H](CCC(=O)O)C(=O)N[C@@H](CCCNC(=N)N)C(=O)N[C@@H](C)C(=O)N[C@@H](C)C(=O)N[C@@H](CCC(N)=O)C(=O)N[C@@H](CC(=O)O)C(=O)N[C@@H](Cc1ccccc1)C(=O)N[C@H](C(=O)N[C@@H](CCC(N)=O)C(=O)N[C@@H](Cc1c[nH]c2ccccc12)C(=O)N[C@@H](CC(C)C)C(=O)N[C@@H](CC(C)C)C(=O)N[C@@H](CCCCN)C(=O)NCC(=O)N[C@@H](CCCNC(=N)N)C(=O)NCC(N)=O)C(C)C)C(=O)O
# B7: peptide of SEQ ID NO: 31 (peptide)
# peptide: H[Aib]QGTFTSDK([γGlu-γGlu-Palmitoyl])SKYLD[Aib]RAAQDFVQWLMKGRG-OH
# modifications: N-terminus assumed
# SMILES: CCCCCCCCCCCCCCCC(=O)N[C@@H](CCC(=O)N[C@@H](CCC(=O)NCCCC[C@H](NC(=O)[C@H](CC(=O)O)NC(=O)[C@H](CO)NC(=O)[C@@H](NC(=O)[C@H](Cc1ccccc1)NC(=O)[C@@H](NC(=O)CNC(=O)[C@H](CCC(N)=O)NC(=O)C(C)(C)NC(=O)[C@@H](N)Cc1c[nH]cn1)[C@@H](C)O)[C@@H](C)O)C(=O)N[C@@H](CO)C(=O)N[C@@H](CCCCN)C(=O)N[C@@H](Cc1ccc(O)cc1)C(=O)N[C@@H](CC(C)C)C(=O)N[C@@H](CC(=O)O)C(=O)NC(C)(C)C(=O)N[C@@H](CCCNC(=N)N)C(=O)N[C@@H](C)C(=O)N[C@@H](C)C(=O)N[C@@H](CCC(N)=O)C(=O)N[C@@H](CC(=O)O)C(=O)N[C@@H](Cc1ccccc1)C(=O)N[C@H](C(=O)N[C@@H](CCC(N)=O)C(=O)N[C@@H](Cc1c[nH]c2ccccc12)C(=O)N[C@@H](CC(C)C)C(=O)N[C@@H](CCSC)C(=O)N[C@@H](CCCCN)C(=O)NCC(=O)N[C@@H](CCCNC(=N)N)C(=O)NCC(=O)O)C(C)C)C(=O)O)C(=O)O
# Molecular target: GLP-1 receptor (UniProt P43220 24-463, limits assumed)
# Experiment: cell-based or functional assay
row,Binder,EC50 (nM) at GLP-1 receptor [nM]
1,B1,0.003
2,B2,0.007
3,B3,0.0082
4,B4,0.008
5,B5,0.076
6,B6,0.005
7,B7,0.007

# Molecular target: glucagon receptor (UniProt P47871 26-477, limits assumed)
# Experiment: cell-based or functional assay
# Chain of glucagon receptor (P47871 26-477 limits assumed): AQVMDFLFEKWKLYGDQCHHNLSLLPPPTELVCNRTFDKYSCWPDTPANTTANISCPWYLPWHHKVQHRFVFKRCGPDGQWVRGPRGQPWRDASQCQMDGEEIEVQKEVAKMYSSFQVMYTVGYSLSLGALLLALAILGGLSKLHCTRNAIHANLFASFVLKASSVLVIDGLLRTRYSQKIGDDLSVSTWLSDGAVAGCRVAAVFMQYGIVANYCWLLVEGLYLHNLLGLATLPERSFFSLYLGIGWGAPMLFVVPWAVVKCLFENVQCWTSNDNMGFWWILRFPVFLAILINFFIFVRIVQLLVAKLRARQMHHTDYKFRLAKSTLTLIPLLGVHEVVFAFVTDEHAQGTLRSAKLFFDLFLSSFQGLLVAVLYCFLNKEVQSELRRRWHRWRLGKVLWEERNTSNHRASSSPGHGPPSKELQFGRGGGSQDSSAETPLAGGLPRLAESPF
row,Binder,EC50 (nM) at glucagon receptor [nM]
1,B1,0.015
2,B2,0.014
3,B3,0.933
4,B4,0.007
5,B5,0.365
6,B6,0.022
7,B7,0.016

# Molecular target: T1, GIP receptor
# Experiment: cell-based or functional assay
row,Binder,EC50 (nM) at GIP receptor [nM]
1,B1,2.84
2,B2,1.65
3,B3,9.06
4,B4,2.08
5,B5,33.7
6,B6,2.12
7,B7,2.34
